# Reference: patent publication EP0332424A2 (dated 1991)
# T1: human carcinoembryonic antigen (human, UniProt P06731 35-685, 125I label (125I-CEA, the tracer in the radioimmunoassay))
# T1 construct: Used as a 125I-labelled tracer; also called CEA
# T1 sequence (looked up): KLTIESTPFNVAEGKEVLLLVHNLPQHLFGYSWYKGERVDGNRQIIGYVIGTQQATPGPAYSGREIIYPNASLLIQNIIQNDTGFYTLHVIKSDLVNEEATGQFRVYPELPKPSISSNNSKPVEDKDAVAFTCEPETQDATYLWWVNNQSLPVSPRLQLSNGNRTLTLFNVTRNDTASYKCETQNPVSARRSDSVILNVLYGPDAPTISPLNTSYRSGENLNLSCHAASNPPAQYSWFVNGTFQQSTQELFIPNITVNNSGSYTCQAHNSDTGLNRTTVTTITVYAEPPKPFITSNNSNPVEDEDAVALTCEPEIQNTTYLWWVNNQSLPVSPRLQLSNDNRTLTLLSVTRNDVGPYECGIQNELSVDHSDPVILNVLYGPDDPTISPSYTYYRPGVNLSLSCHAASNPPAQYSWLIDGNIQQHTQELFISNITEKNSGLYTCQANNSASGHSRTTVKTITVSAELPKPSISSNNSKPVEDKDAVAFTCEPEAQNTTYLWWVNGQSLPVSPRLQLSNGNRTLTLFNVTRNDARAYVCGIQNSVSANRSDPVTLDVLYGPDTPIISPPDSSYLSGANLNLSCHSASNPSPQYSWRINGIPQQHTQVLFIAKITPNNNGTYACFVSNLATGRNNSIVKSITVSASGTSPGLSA
# How the values were obtained:
# [1] = molecular target: T1, human carcinoembryonic antigen; assay: solid phase radioimmunoassay: culture supernatant, 125I-CEA, Sepharose-bound goat anti-human IgG
# [2] = molecular target: T1, human carcinoembryonic antigen; assay: affinity comparison by radioimmunoassay and Scatchard analysis; Ka not given
Binder,binding result [1],binding result [2]
"chimeric antibody XCEM 449 (antibody, V domains shown, the one-letter code is converted from the printed three-letter code; also called CEM-chimeric antibody; chimeric CEM antibody) VH: DVQLVESGGGLVQPGGSRKLSCAASGFTFSNFGMHWIRQAPEKGLEWVAYISGGSSTIYYADTVKGRFTISRDNPRNTLFLQMTSLRSEDTAMFYCARDYYANNYWYFDVWGAGTTVTVSS VL: DIVMTQSQKFMSTSVGDRVSITCKASQNVRTAVAWYQQKPGQSPKALIYLASNRYTGVPDRFTGSGSGTDFTLTITNVQSEDLADYFCLQHWNYPLTFGAGTKLELKR",binds,
"murine monoclonal antibody of hybridoma CEM 231.6.7 (antibody, V domains shown, also called murine antibody counterparts; ATCC HB9620) VH: DVQLVESGGGLVQPGGSRKLSCAASGFTFSNFGMHWIRQAPEKGLEWVAYISGGSSTIYYADTVKGRFTISRDNPRNTLFLQMTSLRSEDTAMFYCARDYYANNYWYFDVWGAGTTVTVSS VL: DIVMTQSQKFMSTSVGDRVSITCKASQNVRTAVAWYQQKPGQSPKALIYLASNRYTGVPDRFTGSGSGTDFTLTITNVQSEDLADYFCLQHWNYPLTFGAGTKLELKR",,binds
